Data on nine molecules can be found in patent publication US20140135482A1 (Hoffmann-La Roche, published 2014).

Assay [1] concerns the target T1, recombinant Her3 ectodomain (ECD) (human, UniProt P21860 20-643).
T1 construct: the whole entry for human ErbB-3 is named; also called human HER3 ECD
Kind of assay: SPR (Biacore T100), antibody captured by anti-Fc gamma antibody, ECD in solution, 25 C.

Assay [2] concerns the target T2, recombinant c-Met ectodomain (ECD) (human, UniProt P08581 25-932).
T2 construct: the whole entry for human c-Met is named; also called c-Met ECD
The description is as above.

For assay [3], the target named is T3, human ErbB-3 (on cells) (human, UniProt P21860 20-1342). Kind of assay: cell-based or functional assay.
The target in assay [4] is T3, human ErbB-3 (on cells). Kind of assay: flow cytometry on A431 cells, dilution series of the antibody, detected with PE-coupled anti-human Fc antibody. As to the method: (§1) A431 were detached and counted. 1.5×10e5 cells were seeded per well of a conical 96-well plate. Cells were spun down (1500 rpm, 4° C., 5 min) and incubated for 30 min on ice in 50 μL of a dilution series of the respective bispecific antibody in PBS with 2% FCS (fetal calf serum). Cells were again spun down and washed once with 200 μL PBS containing 2% FCS followed by a second incubation of 30 min with a phycoerythrin-coupled antibody directed against human Fc which was diluted in PBS containing 2% FCS (Jackson Immunoresearch, 109116098). Cells were spun down washed twice with 200 μL PBS containing 2% FCS, resuspended in BD CellFix solution (BD Biosciences) and incubated for at least 10 min on ice. Mean fluorescence intensity (mfi) of the cells was determined by flow cytometry (FACS Canto, BD). Mfi was determined at least in duplicates of two independent stainings Flow cytometry spectra were further processed using the FlowJo software (TreeStar). Half-maximal binding was determined using XLFit 4.0 (IDBS) and the dose response one site model 205.
(§2) The binding properties of the bispecific antibodies to their respective receptor on the cell surface was analyzed on A431 cancer cells in a flow cytometry based assay. Cells were incubated with the mono- or bispecific primary antibodies and binding of these antibodies to their cognate receptors was detected with a secondary antibody coupled to a fluorophor binding specifically to the Fc of the primary antibody. The mean fluorescence intensity of a dilution series of the primary antibodies was plotted against the concentration of the antibody to obtain a sigmoidal binding curve.
In general terms: Flow cytometry measures light scatter and fluorescence of single cells or particles in a stream.

The next assay addresses T4, human c-Met (on cells) (human, UniProt P08581 25-1390).
T4 construct: Endogenous receptor on human cell lines (A431, A549, HT29, DU145, HUVEC); also called c-Met receptor
Described as above. As to the method: as §1, §2

For assay [5], the target named is T3, human ErbB-3 (on cells). Kind of assay: flow cytometry on A431 cells, dilution series of the bispecific antibody in the presence of Fab 5D5 (its concentration is not given on the sheet), detected with PE-coupled anti-human Fc antibody.

B1: MH_TvAB21 (bispecific antibody)
chain 1: not shown
chain 2: not shown
chain 3: DIVMTQSPSSLTVTAGENVTMSCKSSQSLLNSGNQKNYLTWYQQKPGQPPKLLIYWASTRESGVPNRFTGSGSGTDFTLAISSVQAEDLSIYYCQSDYSYPYTFGQGTKLEIKRTVAAPSVFIFPPSDEQLKSGTASVVCLLNNFYPREAKVQWKVDNALQSGNSQESVTEQDSKDSTYSLSSTLTLSKADYEKHKVYACEVTHQGLSSPVTKSFNRGEC
On to B1, for which the results for the dissociation constant (Kd) in assay [1] and in assay [2] were 1.8 nM and 0.8 nM, respectively.

B2: MH_TvAB22 (bispecific antibody)
chain 1: not shown
chain 2: not shown
chain 3: DIVMTQSPSSLTVTAGENVTMSCKSSQSLLNSGNQKNYLTWYQQKPGQPPKLLIYWASTRESGVPNRFTGSGSGTDFTLAISSVQAEDLSIYYCQSDYSYPYTFGQGTKLEIKRTVAAPSVFIFPPSDEQLKSGTASVVCLLNNFYPREAKVQWKVDNALQSGNSQESVTEQDSKDSTYSLSSTLTLSKADYEKHKVYACEVTHQGLSSPVTKSFNRGEC
For the molecule B2, the Kd in assay [1] came out at 2.1 nM; in assay [2], 0.9 nM.

B3: <ErbB3> HER3 clone 29 (antibody, human IgG1, kappa, V domains shown)
VH: DVQLQESGPGLVKPSQSLSLTCSVTGYSITSAYYWNWIRQFPGNKLEWMGYISYGGSNSYAPSLKNRFSITRDTSKNQFFLKLNSVTTEDTATYYCARESDYAYFDYWGQGTTLTVSS
VL: DIQMTQTTSSLSASLGDRVTISCRARQDISNYLNWYQRKPDGTVKLLIYYTSRLHSGVPSRFSGSGSGTDYSLTISNLEQEDIATYFCQQGNTFPWTFGGGTKLEIKR
notes: Monospecific bivalent parent antibody (chimeric)
For B3, in the assay with human ErbB-3 (on cells) [3], the “% ErbB3 receptor on A431 cell surface measured after 2 h” value (shortened to “% ErbB3 receptor on A431 cell surface”) was determined as 44% and the “% Internalization of ErbB3 after 2 h on A431 cells” value (“% Internalization of ErbB3” for short) amounted to 54%. Moreover, the concentration for a half-maximal effect (EC50 (read off the curve)) with human ErbB-3 (on cells) [4] is about 0.03 µg/mL.

B4: <c-Met> Mab 5D5 (antibody, human IgG1, kappa, V domains shown)
VH: EVQLVESGGGLVQPGGSLRLSCAASGYTFTSYWLHWVRQAPGKGLEWVGMIDPSNSDTRFNPNFKDRFTISADTSKNTAYLQMNSLRAEDTAVYYCATYRSYVTPLDYWGQGTLVTVSS
VL: DIQMTQSPSSLSASVGDRVTITCKSSQSLLYTSSQKNYLAWYQQKPGKAPKLLIYWASTRESGVPSRFSGSGSGTDFTLTISSLQPEDFATYYCQQYYAYPWTFGQGTKVEIKR
notes: Monospecific, bivalent c-Met parent antibody (humanized); also called c-Met 5D5; bivalent 5D5
In the case of B4, the “EC50 (read off the curve)” value in the assay with human c-Met (on cells) was about 0.06 µg/mL.

B5: <ErbB3> Mab 205 (chimeric) (antibody, V domains shown)
VH: QGQMQQSGAELVKPGASVKLSCKTSGFTFRSSYISWLKQKPRQSLEWIAWIYAGTGSPSYNQKFTGKAQLTVDTSSSTAYMQLSSLTSEDSAIYYCARHRDYYSNSLTYWGQGTLVTVSA
VL: DIVMTQSPSSLTVTAGENVTMSCKSSQSLLNSGNQKNYLTWYQQKPGQPPKLLIYWASTRESGVPNRFTGSGSGTDFTLAISSVQAEDLSIYYCQSDYSYPYTFGQGTKLEIK
B5: in the assay with human ErbB-3 (on cells) [3], the “% ErbB3 receptor on A431 cell surface” value is 60% and the “% Internalization of ErbB3” value was found to be 40%.

B6: <ErbB3-c-Met> Her3/Met_6C (bispecific antibody, human IgG1, kappa)
heavy 1: not shown
heavy 2: not shown
light: DIQMTQTTSSLSASLGDRVTISCRARQDISNYLNWYQRKPDGTVKLLIYYTSRLHSGVPSRFSGSGSGTDYSLTISNLEQEDIATYFCQQGNTFPWTFGGGTKLEIKRTVAAPSVFIFPPSDEQLKSGTASVVCLLNNFYPREAKVQWKVDNALQSGNSQESVTEQDSKDSTYSLSSTLTLSKADYEKHKVYACEVTHQGLSSPVTKSFNRGEC
Regarding B6, in the assay with human ErbB-3 (on cells) [3], the “% ErbB3 receptor on A431 cell surface” value was found to be 94% and the “% Internalization of ErbB3” value came out at 6%.

B7: <ErbB3-c-Met> Her3/Met_KHSS (bispecific antibody, human IgG1, kappa)
heavy 1: not shown
heavy 2: not shown
light: DIQMTQTTSSLSASLGDRVTISCRARQDISNYLNWYQRKPDGTVKLLIYYTSRLHSGVPSRFSGSGSGTDYSLTISNLEQEDIATYFCQQGNTFPWTFGGGTKLEIKRTVAAPSVFIFPPSDEQLKSGTASVVCLLNNFYPREAKVQWKVDNALQSGNSQESVTEQDSKDSTYSLSSTLTLSKADYEKHKVYACEVTHQGLSSPVTKSFNRGEC
notes: also called Her3/c-Met KHSS
For the molecule B7, in the assay with human ErbB-3 (on cells) [4], the binding result is recorded as “binds”.

B8: <ErbB3-c-Met> Her3/Me_scFvSSKH (bispecific antibody, human IgG1, kappa)
heavy 1: not shown
heavy 2: not shown
light: DIQMTQTTSSLSASLGDRVTISCRARQDISNYLNWYQRKPDGTVKLLIYYTSRLHSGVPSRFSGSGSGTDYSLTISNLEQEDIATYFCQQGNTFPWTFGGGTKLEIKRTVAAPSVFIFPPSDEQLKSGTASVVCLLNNFYPREAKVQWKVDNALQSGNSQESVTEQDSKDSTYSLSSTLTLSKADYEKHKVYACEVTHQGLSSPVTKSFNRGEC
On to B8, for which the concentration giving a half-maximal response (EC50 (read off the curve)) with human ErbB-3 (on cells) [5] was about 0.06 µg/mL.

B9: <ErbB3-c-Met> Her3/Met_SSKH (bispecific antibody, human IgG1, kappa)
heavy 1: not shown
heavy 2: not shown
light: DIQMTQTTSSLSASLGDRVTISCRARQDISNYLNWYQRKPDGTVKLLIYYTSRLHSGVPSRFSGSGSGTDYSLTISNLEQEDIATYFCQQGNTFPWTFGGGTKLEIKRTVAAPSVFIFPPSDEQLKSGTASVVCLLNNFYPREAKVQWKVDNALQSGNSQESVTEQDSKDSTYSLSSTLTLSKADYEKHKVYACEVTHQGLSSPVTKSFNRGEC
As to B9, in the assay with human ErbB-3 (on cells) [3], the “% ErbB3 receptor on A431 cell surface” value worked out at 89% and the “% Internalization of ErbB3” value was 11%.

As usually defined, the Kd is the constant that tells how readily two partners part at equilibrium. The EC50 (read off the curve) is the concentration needed to bring the measured effect to its halfway point.
